The labels stand for the following.
B1: PTPRD (parent)
chain: ELDELLKEISRKRRSIRYGREVEL

For 94 variants, protein stability index results are on record in the supplement of paper PMC10567573.
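Further: lentivirally expressed fusions sorted by FACS into six bins by GFP to DsRed ratio, PSI derived from sequencing read proportions per bin multiplied by bin number.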

In this data set the parent is B1. Nature of the data set: protein stability index of a GFP-peptide fusion (GPS, HEK-293T) (PSI 1-6); higher = more stable. The conditions noted are these: c terminus: a fixed tail appended.
For the variant ELDELLKQISRKRRSIRYGREVEL [E8Q], the protein stability index came to 2.81.

Take ELDELLKSISRKRRSIRYGREVEL [E8S]: the protein stability index came out at 2.45.

For the variant ELDELLKKISRKRRSIRYGREVEL [E8K], the protein stability index worked out at 3.79.

As to ELDELLKWISRKRRSIRYGREVEL [E8W], the protein stability index is 2.64.

For the variant ELDELLKVISRKRRSIRYGREVEL [E8V], the protein stability index came to 1.7.

Consider ELDELLKYISRKRRSIRYGREVEL [E8Y], for which the protein stability index is 1.88.

As to ELDELLKLISRKRRSIRYGREVEL [E8L], the protein stability index was 2.03.

Turning to ELDELLKAISRKRRSIRYGREVEL [E8A], the protein stability index stood at 1.68.

On to ELDELLKPISRKRRSIRYGREVEL [E8P], for which the protein stability index was determined as 2.77.

For the variant ELDELLKIISRKRRSIRYGREVEL [E8I], the protein stability index is 2.83.

ELDELLKCISRKRRSIRYGREVEL [E8C]: the protein stability index was 1.83.

As to ELDELLKRISRKRRSIRYGREVEL [E8R], the protein stability index was found to be 2.54.

Regarding ELDELLKMISRKRRSIRYGREVEL [E8M], the protein stability index was found to be 2.37.

Take ELDELLKHISRKRRSIRYGREVEL [E8H]: the protein stability index worked out at 1.99.

For the variant ELDELLKTISRKRRSIRYGREVEL [E8T], the protein stability index worked out at 2.79.

Take ELDELLKGISRKRRSIRYGREVEL [E8G]: the protein stability index was 2.86.

For the variant ELDELLKFISRKRRSIRYGREVEL [E8F], the protein stability index was found to be 2.

As for ELDELLKNISRKRRSIRYGREVEL [E8N], the protein stability index amounted to 2.44.

Turning to ELDELLKEWSRKRRSIRYGREVEL [I9W], the protein stability index was found to be 2.89.

Turning to ELDELLKESSRKRRSIRYGREVEL [I9S], the protein stability index worked out at 3.62.

In the case of ELDELLKETSRKRRSIRYGREVEL [I9T], the protein stability index was 3.97.

Consider ELDELLKEKSRKRRSIRYGREVEL [I9K], for which the protein stability index is 3.96.

On to ELDELLKEESRKRRSIRYGREVEL [I9E], for which the protein stability index amounted to 4.46.

Take ELDELLKEASRKRRSIRYGREVEL [I9A]: the protein stability index worked out at 3.14.

In the case of ELDELLKEMSRKRRSIRYGREVEL [I9M], the protein stability index is 2.64.

As for ELDELLKENSRKRRSIRYGREVEL [I9N], the protein stability index stood at 3.35.

Consider ELDELLKEQSRKRRSIRYGREVEL [I9Q], for which the protein stability index came out at 4.18.

Turning to ELDELLKEDSRKRRSIRYGREVEL [I9D], the protein stability index came to 3.98.

With ELDELLKERSRKRRSIRYGREVEL [I9R], the protein stability index is 3.72.

Turning to ELDELLKEGSRKRRSIRYGREVEL [I9G], the protein stability index came to 3.57.

As to ELDELLKEVSRKRRSIRYGREVEL [I9V], the protein stability index was determined as 2.61.

With ELDELLKEFSRKRRSIRYGREVEL [I9F], the protein stability index turned out to be 2.33.

Turning to ELDELLKEPSRKRRSIRYGREVEL [I9P], the protein stability index came out at 3.81.

As to ELDELLKELSRKRRSIRYGREVEL [I9L], the protein stability index was 2.21.

Consider ELDELLKECSRKRRSIRYGREVEL [I9C], for which the protein stability index worked out at 2.54.

ELDELLKEYSRKRRSIRYGREVEL [I9Y]: the protein stability index turned out to be 2.63.

As for ELDELLKEHSRKRRSIRYGREVEL [I9H], the protein stability index came out at 3.09.

Take ELDELCKEISRKRRSIRYGREVEL [L6C]: the protein stability index came out at 3.29.

Regarding ELDELEKEISRKRRSIRYGREVEL [L6E], the protein stability index amounted to 4.28.

With ELDELDKEISRKRRSIRYGREVEL [L6D], the protein stability index is 4.29.

Consider ELDELSKEISRKRRSIRYGREVEL [L6S], for which the protein stability index came out at 3.98.

As to ELDELYKEISRKRRSIRYGREVEL [L6Y], the protein stability index is 2.71.

On to ELDELWKEISRKRRSIRYGREVEL [L6W], for which the protein stability index is 1.5.

Consider ELDELAKEISRKRRSIRYGREVEL [L6A], for which the protein stability index stood at 3.65.

As to ELDELHKEISRKRRSIRYGREVEL [L6H], the protein stability index is 3.19.

On to ELDELVKEISRKRRSIRYGREVEL [L6V], for which the protein stability index is 3.8.

Consider ELDELTKEISRKRRSIRYGREVEL [L6T], for which the protein stability index worked out at 3.92.

Regarding ELDELIKEISRKRRSIRYGREVEL [L6I], the protein stability index worked out at 1.93.

Regarding ELDELMKEISRKRRSIRYGREVEL [L6M], the protein stability index was found to be 2.68.

With ELDELFKEISRKRRSIRYGREVEL [L6F], the protein stability index was found to be 2.07.

Consider ELDELQKEISRKRRSIRYGREVEL [L6Q], for which the protein stability index came out at 3.73.

On to ELDELKKEISRKRRSIRYGREVEL [L6K], for which the protein stability index was 3.92.

Consider ELDELRKEISRKRRSIRYGREVEL [L6R], for which the protein stability index stood at 3.76.

ELDELGKEISRKRRSIRYGREVEL [L6G]: the protein stability index came to 4.21.

As for ELDELPKEISRKRRSIRYGREVEL [L6P], the protein stability index is 4.08.

For the variant ELDELNKEISRKRRSIRYGREVEL [L6N], the protein stability index stood at 3.81.

In the case of ELNELLKEISRKRRSIRYGREVEL [D3N], the protein stability index worked out at 3.35.

Consider ELTELLKEISRKRRSIRYGREVEL [D3T], for which the protein stability index was 1.8.

On to ELRELLKEISRKRRSIRYGREVEL [D3R], for which the protein stability index stood at 1.86.

Turning to ELIELLKEISRKRRSIRYGREVEL [D3I], the protein stability index was 3.46.

For the variant ELGELLKEISRKRRSIRYGREVEL [D3G], the protein stability index stood at 1.67.

With ELLELLKEISRKRRSIRYGREVEL [D3L], the protein stability index worked out at 1.63.

With ELWELLKEISRKRRSIRYGREVEL [D3W], the protein stability index was found to be 1.75.

ELYELLKEISRKRRSIRYGREVEL [D3Y]: the protein stability index worked out at 2.12.

With ELEELLKEISRKRRSIRYGREVEL [D3E], the protein stability index worked out at 2.51.

Turning to ELPELLKEISRKRRSIRYGREVEL [D3P], the protein stability index is 2.26.

Consider ELFELLKEISRKRRSIRYGREVEL [D3F], for which the protein stability index turned out to be 2.12.

ELKELLKEISRKRRSIRYGREVEL [D3K]: the protein stability index came out at 2.38.

For ELCELLKEISRKRRSIRYGREVEL [D3C], the protein stability index stood at 1.73.

With ELHELLKEISRKRRSIRYGREVEL [D3H], the protein stability index was found to be 2.48.

On to ELMELLKEISRKRRSIRYGREVEL [D3M], for which the protein stability index stood at 1.65.

Regarding ELQELLKEISRKRRSIRYGREVEL [D3Q], the protein stability index worked out at 2.62.

With ELSELLKEISRKRRSIRYGREVEL [D3S], the protein stability index was found to be 2.57.

On to ELAELLKEISRKRRSIRYGREVEL [D3A], for which the protein stability index is 1.76.

ELDELLCEISRKRRSIRYGREVEL [K7C]: the protein stability index came to 2.33.

ELDELLMEISRKRRSIRYGREVEL [K7M]: the protein stability index was determined as 2.26.

In the case of ELDELLAEISRKRRSIRYGREVEL [K7A], the protein stability index came to 2.83.

On to ELDELLVEISRKRRSIRYGREVEL [K7V], for which the protein stability index was determined as 2.07.

With ELDELLHEISRKRRSIRYGREVEL [K7H], the protein stability index came to 2.4.

In the case of ELDELLDEISRKRRSIRYGREVEL [K7D], the protein stability index came out at 3.25.

Turning to ELDELLQEISRKRRSIRYGREVEL [K7Q], the protein stability index was 2.46.

Regarding ELDELLSEISRKRRSIRYGREVEL [K7S], the protein stability index amounted to 2.6.

For ELDELLGEISRKRRSIRYGREVEL [K7G], the protein stability index came to 2.54.

On to ELDELLLEISRKRRSIRYGREVEL [K7L], for which the protein stability index came out at 2.72.

In the case of ELDELLFEISRKRRSIRYGREVEL [K7F], the protein stability index was 2.

As for ELDELLEEISRKRRSIRYGREVEL [K7E], the protein stability index came out at 3.1.

In the case of ELDELLREISRKRRSIRYGREVEL [K7R], the protein stability index was 2.27.

On to ELDELLYEISRKRRSIRYGREVEL [K7Y], for which the protein stability index came to 2.77.

On to ELDELLWEISRKRRSIRYGREVEL [K7W], for which the protein stability index is 2.19.

Take ELDELLIEISRKRRSIRYGREVEL [K7I]: the protein stability index was 2.27.

Turning to ELDELLNEISRKRRSIRYGREVEL [K7N], the protein stability index was determined as 2.16.

For ELDELLTEISRKRRSIRYGREVEL [K7T], the protein stability index worked out at 3.09.

ELDELLPEISRKRRSIRYGREVEL [K7P]: the protein stability index was determined as 3.12.

For ELDELLKEISAKRRSIRYGREVEL [R11A], the protein stability index is 2.01.
